Measurements as given in publication PMC5353671, “A bacterial aromatic aldehyde dehydrogenase critical for the efficient catabolism of syringaldehyde” (Scientific Reports, 2017).
Blank lines part the entries; values can stand above or below the substance they belong to.

What was measured:
COc1cc(C=O)ccc1O = tested on: T1, COc1cc(C=O)ccc1O; assay: HPLC, Hanes-Woolf plot; assay type: biochemical, Sphingobium sp. SYK-6; conditions: 500 μM NAD+, pH 7.0 phosphate buffer, 30 °C
T1 construct: calculated Mr 55,173; dimer 120 kDa
Text: (§1) HPLC, Hanes-Woolf plot on DesV (SLG_28320)

COc1cc(C=O)cc(OC)c1O = tested on: T2, COc1cc(C=O)cc(OC)c1O; assay: HPLC, Hanes-Woolf plot; assay type: biochemical, Sphingobium sp. SYK-6; conditions: 500 μM NAD+, pH 7.0 phosphate buffer, 30 °C
T2 construct: calculated Mr 55,173; dimer 120 kDa
Text: as §1

[1] = target: LigV (vanillin dehydrogenase), His-tag fused (Sphingobium sp. SYK-6); assay: SEC; Superdex200 10/300GL, 50 mM KH2PO4-K2HPO4 buffer (pH 7.0) with 150 mM NaCl, 0.5 ml/min; native mass estimated and compared with the monomer size
[2] = target: DesV (SLG_28320 gene product), His-tag fused (Sphingobium sp. SYK-6); assay: as above

Chain of DesV (SLG_28320) (Sphingobium sp. SYK-6) (chain, as listed by the source): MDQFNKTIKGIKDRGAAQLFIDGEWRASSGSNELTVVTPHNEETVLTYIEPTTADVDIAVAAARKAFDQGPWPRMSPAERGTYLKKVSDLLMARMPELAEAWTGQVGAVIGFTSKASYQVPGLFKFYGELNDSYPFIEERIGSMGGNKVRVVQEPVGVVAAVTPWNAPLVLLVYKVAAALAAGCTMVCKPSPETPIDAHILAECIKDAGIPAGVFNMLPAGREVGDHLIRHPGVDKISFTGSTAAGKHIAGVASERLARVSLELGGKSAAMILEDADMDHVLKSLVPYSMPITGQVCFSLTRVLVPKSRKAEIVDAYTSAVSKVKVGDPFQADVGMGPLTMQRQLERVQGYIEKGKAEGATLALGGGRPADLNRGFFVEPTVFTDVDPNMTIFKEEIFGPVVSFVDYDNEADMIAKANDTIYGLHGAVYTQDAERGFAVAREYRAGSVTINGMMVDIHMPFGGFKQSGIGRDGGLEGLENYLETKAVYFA

Substance: DesV (SLG_28320) (Sphingobium sp. SYK-6)
Km (COc1cc(C=O)ccc1O): 0.47 ± 0.04 µM | Vmax (COc1cc(C=O)ccc1O): 0.85 µmol/min/mg | kcat (COc1cc(C=O)ccc1O): 0.79 ± 0.01 s⁻¹ | kcat/Km (COc1cc(C=O)ccc1O): 1.7e+06 ± 140000 M⁻¹ s⁻¹ | Km (COc1cc(C=O)cc(OC)c1O): 0.48 ± 0.03 µM | Vmax (COc1cc(C=O)cc(OC)c1O): 1.08 µmol/min/mg | kcat (COc1cc(C=O)cc(OC)c1O): 0.99 ± 0.01 s⁻¹ | kcat/Km (COc1cc(C=O)cc(OC)c1O): 2.1e+06 ± 93000 M⁻¹ s⁻¹

stoichiometry N [1]: 4
Substance: LigV (vanillin dehydrogenase), His-tag fused (enzyme)

stoichiometry N [2]: 2
Substance: DesV (SLG_28320 gene product), His-tag fused (enzyme)
